In assay [1] the target is chimeric receptor: extracellular and transmembrane portions of the mouse type I IL-1 receptor fused to the cytoplasmic portion of human 2F1 (mouse; human) (UniProt P13504). The assay is described as follows: cell-based or functional assay. As to conditions: scale: fold of the level mediated by the intact mouse type I IL-1R.
The target of assay [2] is T1, soluble type I IL-1RI/Fc fusion protein (extracellular domain of human type I IL-1R fused to the Fc region … (human, UniProt P14778 18-336)).
T1 construct: extracellular domain; Positive control in the BIAcore assay; also called human type I IL-1R/Fc fusion protein; not shown: Fc region polypeptide (human IgG1, as for 2F1/Fc)
T1 sequence (looked up): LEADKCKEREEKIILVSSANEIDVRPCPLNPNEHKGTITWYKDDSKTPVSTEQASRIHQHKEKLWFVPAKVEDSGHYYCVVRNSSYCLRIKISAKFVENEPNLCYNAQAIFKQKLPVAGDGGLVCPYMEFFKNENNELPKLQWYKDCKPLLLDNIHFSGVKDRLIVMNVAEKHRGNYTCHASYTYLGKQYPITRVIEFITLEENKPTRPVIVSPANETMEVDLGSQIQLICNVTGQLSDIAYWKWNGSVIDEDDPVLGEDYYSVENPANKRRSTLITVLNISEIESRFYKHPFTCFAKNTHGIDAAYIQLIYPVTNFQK
The assay is described as follows: BIAcore; Fc fusion captured by anti-human IgG Fc serum. The text has this:
(§1) A BIAcore biosensor (Pharmacia Biosensor AB, Piscataway, N.J.) was used to examine binding of IL-1 ligands to the human 2F1/Fc fusion protein, using procedures essentially as described in Arend et al. (*J. Immunol.* 153: 4766–4774, 1994). Briefly, a goat anti-human IgG serum directed against the Fc region (Jackson Immunoresearch Laboratories, Inc., West Grove, Pa.), covalently coupled to the dextran matrix of a hydrogel chip, was used to capture the human 2F1/Fc protein. The 2F1/Fc fusion protein thus was immobilized on the BIAcore chip. The three IL-1 ligands, at several different concentrations, were reacted with the captured protein, and the change of mass per unit area over time was measured.
In general terms: In SPR one partner is held on a chip, and binding of the other changes the refractive index at the surface.

The target in assay [3] is T2, 2F1/Fc soluble fusion protein (human 2F1 extracellular domain joined to the Fc region of a human IgG1) (human, UniProt Q13478 20-329).
T2 construct: Captured on the BIAcore chip by goat anti-human IgG Fc serum; also called human 2F1/Fc fusion protein; 2F1/Fc protein; not shown: Fc region of a human IgG1; made by procedures analogous to Baum et al. 1994
T2 sequence: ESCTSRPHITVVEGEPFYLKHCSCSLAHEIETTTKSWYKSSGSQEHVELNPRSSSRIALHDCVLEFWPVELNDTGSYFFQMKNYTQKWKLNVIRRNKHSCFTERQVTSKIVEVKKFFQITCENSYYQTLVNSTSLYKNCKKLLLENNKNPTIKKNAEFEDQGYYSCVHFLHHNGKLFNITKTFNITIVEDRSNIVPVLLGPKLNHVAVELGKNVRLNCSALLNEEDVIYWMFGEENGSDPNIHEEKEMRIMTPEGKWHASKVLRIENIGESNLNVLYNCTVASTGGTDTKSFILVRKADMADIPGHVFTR
The assay is described as follows: BIAcore; 2F1/Fc captured by anti-human IgG Fc serum, ligand at several different concentrations.
Text: as §1

Chain of chimeric receptor: extracellular and transmembrane portions of the mouse type I IL-1 receptor fused to the cytoplasmic portion of human 2F1 (mouse; human) (P13504 other isoform, or with tags, fused parts or gaps mutant, form in doubt): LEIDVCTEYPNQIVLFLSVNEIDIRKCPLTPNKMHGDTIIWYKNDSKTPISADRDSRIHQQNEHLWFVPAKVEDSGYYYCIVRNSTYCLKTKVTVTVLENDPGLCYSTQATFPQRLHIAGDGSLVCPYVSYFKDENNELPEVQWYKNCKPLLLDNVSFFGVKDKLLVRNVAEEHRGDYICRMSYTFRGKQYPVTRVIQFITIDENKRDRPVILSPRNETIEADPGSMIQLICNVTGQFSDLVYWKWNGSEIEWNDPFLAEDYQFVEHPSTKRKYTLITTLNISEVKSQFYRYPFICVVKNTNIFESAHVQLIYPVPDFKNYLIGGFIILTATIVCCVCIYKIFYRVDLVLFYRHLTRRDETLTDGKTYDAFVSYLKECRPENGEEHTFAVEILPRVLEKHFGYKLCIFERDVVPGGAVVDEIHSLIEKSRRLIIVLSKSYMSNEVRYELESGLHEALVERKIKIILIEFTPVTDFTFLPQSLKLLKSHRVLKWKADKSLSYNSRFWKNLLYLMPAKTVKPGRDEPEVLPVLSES

B1: human IL-1α (ligand, UniProt P01583 113-271, looked up)
chain: SAPFSFLSNVKYNFMRIIKYEFILNDALNQSIIRANDQYLTAAALHNLDEAVKFDMGAYKSSKDDAKITVILRISKTQLYVTAQDEDQPVLLKEMPEIPKTITGSETNLLFFWETHGTKNYFTSVAHPNLFIATKQDYWVCLAGGPPSITDFQILENQA
For the molecule B1, the induction of IL-8 promoter function (IL-2Rα reporter, COS7 cells) in assay [1] was found to be 0.5. The binding result in assay [2] is given as “binds”; in assay [3] it was “no binding”.
